# Target: the molecule itself
# Experiment: SEC
protein,measurement,value
"Thermus thermophilus exonuclease I (TTHB178) (enzyme, Thermus thermophilus HB8, UniProt Q53VZ1 1-296, looked up) MAFGVSHPVALDLEATSTDPSEAEVLEVAAVDGEGRVFHRYLATQRPLPPDHEVFQLTGIPYEEYEAKKVAPKEALEELLAFLGGRPLLGHNLLRYDLPLLQRHLEEAGLPRWQGEALDTLRLAHLLFPTPPGGLEGYRLGDLYAFLLGRPLEGAHRALNDAQATLAVFHRLLDRGRRALAQHPGLVRAWRELGLPEGHLFPEDEGLIKDLLAREADVEAFFVEKEGRPFPAPTDLGPDLLPKPRPAQRIKEFVQVAHGVAGQGLVGRERPLHEVLERGLRLAVGEAEEGAVEKEG",stoichiometry N,2
